The values that follow come from PMC4619345, “Key Amino Acids in the Bacterial (6-4) Photolyase PhrB from Agrobacterium fabrum”.

What all share (details): protein: recombinant; tags: C-terminal poly-His (pET21); label: 5' 32P; single strand
Data set [1] deals with T1, PhrB Y424F (Agrobacterium fabrum, UniProt A9CH39 1-507, Y424F).
T1 sequence: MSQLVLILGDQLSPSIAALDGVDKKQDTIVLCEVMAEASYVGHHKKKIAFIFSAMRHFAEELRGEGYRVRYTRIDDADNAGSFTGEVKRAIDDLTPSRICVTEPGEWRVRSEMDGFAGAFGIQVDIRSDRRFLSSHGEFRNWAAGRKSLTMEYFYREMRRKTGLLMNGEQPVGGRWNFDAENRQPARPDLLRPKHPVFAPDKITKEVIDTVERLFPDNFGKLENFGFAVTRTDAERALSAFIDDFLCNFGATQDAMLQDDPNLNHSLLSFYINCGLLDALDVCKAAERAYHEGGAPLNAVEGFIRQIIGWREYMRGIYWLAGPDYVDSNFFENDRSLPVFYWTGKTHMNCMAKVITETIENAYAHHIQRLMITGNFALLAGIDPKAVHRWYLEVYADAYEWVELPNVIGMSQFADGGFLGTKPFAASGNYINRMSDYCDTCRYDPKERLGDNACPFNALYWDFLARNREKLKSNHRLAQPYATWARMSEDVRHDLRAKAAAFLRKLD
In words: EMSA; reduced FAD, darkness; […] (buffer 1: 50 mM Tris-HCl pH 7.0, 1 mM EDTA, 100 mM NaCl, 5% glycerol, 20 mM DTT); or buffer 2: pH 7.5, 10 mM DTT; […]. (In general: Mobility shift assays separate free from complexed probe on a gel.)

Data set [2] concerns the target T2, PhrB Y430F (Agrobacterium fabrum, UniProt A9CH39 1-507, Y430F).
T2 sequence: T1 sequence with F424Y, Y430F
The description is as above.

Data set [3] concerns the target T3, PhrB Y460F (Agrobacterium fabrum, UniProt A9CH39 1-507, Y460F).
T3 sequence: T1 sequence with F424Y, Y460F
Described as above.

Data set [4] has as its target T4, PhrB (Agrobacterium fabrum, UniProt A9CH39 1-507).
T4 sequence: T1 sequence with F424Y
The experiment in a line: EMSA; reduced FAD, darkness; EMSA in repair buffer (buffer 1: 50 mM Tris-HCl pH 7.0, 1 mM EDTA, 100 mM NaCl, 5% glycerol, 20 mM DTT; or buffer 2: pH 7.5, 10 mM DTT; which one not stated), 28 nM DNA, 10% TBE-PAGE at 4 C in darkness.

Where a chain is given by its changes, count along the chain named.

By Kd is commonly meant a measure of binding affinity in units of concentration.

Take CATAGGTTGGCATA (ssDNA, (6-4) photoproduct at T7-T8 (the only TT; 254 nm UV, HPLC purified)) [EMSA_1 (6-4)TT photoproduct]: the dissociation constant Kd in data set [1] was 18 ± 2 µM; in data set [2], 0.027 ± 0.003 µM; in data set [3], 0.025 ± 0.003 µM; in data set [4], 0.013 ± 0.002 µM.
On the same counts, the results for CATAGGTTGGCATA (ssDNA) [EMSA_1 undamaged] are 28 ± 3 µM, 27 ± 2 µM, 25 ± 3 µM and 25 ± 3 µM.
